Measured values from US10487307B2, “Culture method for pluripotent stem cells” (FUJIFILM CORPORATION, priority 2013, dated 2019).

Tests used:
human iPS cells ("Tic") = assay: Cell adhesiveness evaluation 1 (ALP activity of adhesive iPS cells); format: cell-based; conditions: added amount 200 pmol/cm^2; 30,000 cells/well, 24 hours; natural vitronectin (sample 15) = 100%; n=3
How it was run: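 Peptides and controls were adsorbed onto wells for 2 h at 37 °C. Single-cell human iPS cells in TeSR2 with 10 μM Y-27362 were seeded at 30,000 cells/well. After 24 h, non-adherent cells were washed off and adherent cells fixed; cell number came from ALP activity via a calibration curve. Adhesion is expressed relative to natural vitronectin (100%), n=3.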

iPS cells [1] = assay: Evaluation of maintenance of undifferentiated state (reference examples); format: cell-based, human
Protocol: iPS cells collected in the same manner as in <Cell adhesiveness evaluation 1> were suspended in TeSR2. The iPS cells were seeded into 6-well plate (Tissue culture-treated, Falcon), onto which each of the samples 1, 2, 5, 6, and 7 used in <Cell adhesiveness evaluation 1> was adsorbed in the same manner as in <Cell adhesiveness evaluation 1>, and cultured in a CO2 incubator at 37° C. Except for the day after the seeding, the medium was replaced every day. In the same method as described above, the cells were subcultured every six days.
After being cultured for 1 month under the conditions described above, the cells were immobilized using 4% paraformaldehyde and treated with 1% Triton-X/PBS so as to enhance the membrane permeability. After the cells were subjected to a blocking treatment using an Image IT Signal Enhancer (Invitrogen), an anti-human NANOG antibody (AF 1997, R&D Systems, Inc.), an Alexa Fluor 555 binding rabbit anti-goat IgG antibody (Invitrogen), and DAPI (4′,6-diamidino-2-phenylindole, Dojindo Molecular Technologies, Inc.) were added thereto for labeling, and the cells were imaged using a fluorescence microscope.
FIGS. 3A and 4A show the iPS cells cultured on RCP-1; FIGS. 3B and 4B show the iPS cells cultured on RCP-11; FIGS. 3C and 4C show the iPS cells cultured on natural human vitronectin; FIGS. 3D and 4D show the iPS cells cultured on rLaminin-5; and FIGS. 3E and 4E show the iPS cells cultured on rLaminin-511. The scale bar in the images indicates […]. In FIGS. 3A to 3E, the images on the left side are full images of the colony, and the images on the right side are magnified images. In FIGS. 4A to 4E, the images on the left side are images of the cells stained with DAPI, and the images on the right side are images of the cells stained with an anti-NANOG antibody. The scale bar in FIGS. 3A to 4E indicates 200 μm.

iPS cells [2] = assay: Growth evaluation, growth curves over 8 days; format: cell-based, human
Protocol: The iPS cells collected in the same manner as in <Cell adhesiveness evaluation 1> were seeded into a 96-well plate, onto which RCP-1, RCP-21, and natural human vitronectin were adsorbed, at a ratio of 250 cells/well and cultured for 8 days in a 5% CO2 incubator at 37° C. The number of adhesive cells after different days of culture was measured in the same manner as in <Cell adhesiveness evaluation 1>, thereby obtaining growth curves. […] In FIG. 2, a black rhombus indicates a case using RCP-1, and a black square indicates a case using RCP-21.
From the increase and decrease in the obtained number of cells, the doubling time was calculated. As a result, it was confirmed that it takes 46.4±2.1 hours for the number of cells to be doubled in a case where RCP-1 is used, and 67.7±2.1 hours in a case where RCP-21 is used.

B1: RCP-21: comparative polypeptide, SEQ ID NO: 26; positions 1-459, having the sequence of human vitronectin (protein)
chain: GPLGDQESCKGRCTEGFNVDKKCQCDELCSYYQSCCTDYTAECKPQVTRGDVFTMPEDEYTVYDDGEEKNNATVHEQVGGPSLTSDLQAQSKGNPEQTPVLKPEEEAPAPEVGASKPEGIDSRPETLHPGRPQPPAEEELCSGKPFDAFTDLKNGSLFAFRGQYCYELDEKAVRPGYPKLIRDVWGIEGPIDAAFTRINCQGKTYLFKGSQYWRFEDGVLDPDYPRNISDGFDGIPDNVDAALALPAHSYSGRERVYFFKGKQYWEYQFQHQPSQEECEGSSLSAVFEHFAMMQRDSWEDIFELLFWGRTSAGTRQPQFISRDWHGVPGQVDAAMAGRIYISGMAPRPSLAKKQRFRHRNRKGYRSQRGHSRGRNQNSRRPSRATWLSLFSSEESNLGANNYDDYRMDWLVPATCEPIQSVFFFSGDKYYRVNLRTRRVDTVDPPYPRSIAQYWLGCPAPGHL
modifications: Vitronectin-derived Recombinant Protein (RCP-21)
**Q.** For B1, which “Cell adhesion rate (%)” value (human iPS cells ("Tic")) is on record?
**A.** 93.5 ± 7.9%

**Q.** What about the “form of iPS cell colony” value (iPS cells [1]; TeSR2, subcultured every six days, FIGS. 3A to 3E) of the same molecule?
**A.** form specific to undifferentiated cells

**Q.** And the “NANOG expression” value (iPS cells [1]; cultured for 1 month in TeSR2, anti-NANOG staining, FIGS. 4A to 4E)?
**A.** strongly expressed NANOG in the entirety of the colony

**Q.** What about the doubling time (iPS cells [2]; 250 cells/well, cultured for 8 days) of the same molecule?
**A.** 67.7 ± 2.1 h

**Q.** What about the “number of cells on Day 8 of culture as fraction of the number with RCP-1” value (iPS cells [2]; FIG. 2) of the same molecule?
**A.** about ⅓
